Data on 83 variants can be found in the RNAGym collection of RNA variant scans (doi:10.1073/pnas.2313332121).

B1: TPR t1 (parent)
chain: GACCAAUCUGCCCUCAGAGCUCGAGAACAUCUUCGGAUGCAGAGGAGGCAGGCUUCGGUGGCGCGAUAGCGCCAACGUCCUCAACCUCCAAUGCAUCCCACCACAUGAUGAUGCCUGAAGAGCCUUGGUUUUUUG

Variants of B1 are the subject of the data set. Briefly: polymerase ribozyme fitness, log enrichment relative to wild type (log ratio); higher = more active; in vitro selection for triplet polymerase activity. The method, boiled down:
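Fitness measures genotype enrichment against wild-type enrichment on a logarithmic scale, with inverse-variance-weighted averaging of replicates. The logarithm is base 2, and genotypes were kept only with ≥10 input reads and ≥1 read per output in Illumina sequencing. The sequenced libraries came from one triplicate in vitro selection round, including frozen incubation at −7 °C, of PCR-built, transcribed mutant libraries of each subunit of a heterodimeric triplet polymerase ribozyme.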
C49U G63C: the “polymerase ribozyme fitness (log ratio)” value is -0.762.

A50G A74U A91C: the “polymerase ribozyme fitness (log ratio)” value is -2.03.

A50G C99U: the “polymerase ribozyme fitness (log ratio)” value was -3.27.

Regarding C49G C79A, the “polymerase ribozyme fitness (log ratio)” value is -3.75.

Consider C49A G113A, for which the “polymerase ribozyme fitness (log ratio)” value is -0.955.

For G52A U106G A111C, the “polymerase ribozyme fitness (log ratio)” value was -2.25.

On to C49G C53A U59G C72U C86U U132A, for which the “polymerase ribozyme fitness (log ratio)” value is -0.782.

Turning to G52A G135U, the “polymerase ribozyme fitness (log ratio)” value was -1.86.

In the case of C49U G117C, the “polymerase ribozyme fitness (log ratio)” value is -3.03.

As to A50U C72U A74G, the “polymerase ribozyme fitness (log ratio)” value is -1.22.

As for G51A C62U U112A G113U, the “polymerase ribozyme fitness (log ratio)” value is -4.77.

For C49G A83U, the “polymerase ribozyme fitness (log ratio)” value was -0.66.

On to G51A C56A G93A C114U G117U, for which the “polymerase ribozyme fitness (log ratio)” value is -6.47.

G51U G71U C79G: the “polymerase ribozyme fitness (log ratio)” value is -2.26.

In the case of C49A C85A G93C U106A, the “polymerase ribozyme fitness (log ratio)” value is -1.01.

In the case of A50G C53U G61C A90G G113A, the “polymerase ribozyme fitness (log ratio)” value is -1.82.

For the variant C49U G77A A90U A91G C102A, the “polymerase ribozyme fitness (log ratio)” value was -6.02.

Take C49A U55C C88G C94U C124U: the “polymerase ribozyme fitness (log ratio)” value was 0.14.

As for A50U G117C G120C, the “polymerase ribozyme fitness (log ratio)” value is -5.84.

Consider C49A G63U G65C G120C, for which the “polymerase ribozyme fitness (log ratio)” value was -6.43.

In the case of C49G C94G, the “polymerase ribozyme fitness (log ratio)” value is -1.92.

On to A50U U81A A100C, for which the “polymerase ribozyme fitness (log ratio)” value was -1.2.

Take G52U C114U U125A: the “polymerase ribozyme fitness (log ratio)” value was -4.04.

Regarding C49U G52U C56U G77U C101A, the “polymerase ribozyme fitness (log ratio)” value was -2.69.

As to G52U G60A A105C U106G A118G, the “polymerase ribozyme fitness (log ratio)” value was -3.93.

For the variant G52U C73A, the “polymerase ribozyme fitness (log ratio)” value is -0.528.

In the case of A50C C56A, the “polymerase ribozyme fitness (log ratio)” value was -0.326.

As for G51A C53A U133A, the “polymerase ribozyme fitness (log ratio)” value was -2.17.

On to C49G U129C, for which the “polymerase ribozyme fitness (log ratio)” value is -0.4.

With G52A U109A, the “polymerase ribozyme fitness (log ratio)” value was -5.76.

For A50C G52U C94A G117A, the “polymerase ribozyme fitness (log ratio)” value is -6.56.

With C49U C56U C72G C101G, the “polymerase ribozyme fitness (log ratio)” value is -3.7.

For the variant G51A U96A, the “polymerase ribozyme fitness (log ratio)” value is -4.59.

In the case of C49U U96A, the “polymerase ribozyme fitness (log ratio)” value is -3.17.

Turning to A50G U129G, the “polymerase ribozyme fitness (log ratio)” value is -0.967.

On to C49U G128A, for which the “polymerase ribozyme fitness (log ratio)” value is -2.63.

Turning to A50U U59C, the “polymerase ribozyme fitness (log ratio)” value was -0.6.

C49A C79G A103G U112G C114U U116C: the “polymerase ribozyme fitness (log ratio)” value was -7.2.

For the variant C49U G113A, the “polymerase ribozyme fitness (log ratio)” value is -1.68.

In the case of G51U G52A, the “polymerase ribozyme fitness (log ratio)” value is -4.95.

Turning to A50G U55C C88U G107C U112G C123G, the “polymerase ribozyme fitness (log ratio)” value was -5.21.

G51A G113C G122U G135U: the “polymerase ribozyme fitness (log ratio)” value was -7.38.

On to C49U G60C A103C U112A C123G, for which the “polymerase ribozyme fitness (log ratio)” value was -4.76.

Take A50U C73A C76G U112A: the “polymerase ribozyme fitness (log ratio)” value is -3.53.

As to G52U G57U G61U A111U, the “polymerase ribozyme fitness (log ratio)” value was -6.65.

Regarding C49A G52C G60A U112G G127C, the “polymerase ribozyme fitness (log ratio)” value was -2.8.

In the case of G52C C64U A84U C104A U112A, the “polymerase ribozyme fitness (log ratio)” value was -1.62.

For C49U G69U G117U, the “polymerase ribozyme fitness (log ratio)” value is -2.25.

Consider G52U C62A, for which the “polymerase ribozyme fitness (log ratio)” value is -2.89.

As for A50U G63C U112A A118G, the “polymerase ribozyme fitness (log ratio)” value is -2.37.

With C49U A50U C82U, the “polymerase ribozyme fitness (log ratio)” value is -1.71.

In the case of G51C A100U, the “polymerase ribozyme fitness (log ratio)” value was -5.07.

As to C49A U106G, the “polymerase ribozyme fitness (log ratio)” value was -2.41.

Regarding C49A U106A, the “polymerase ribozyme fitness (log ratio)” value is -0.478.

For A50G A91C, the “polymerase ribozyme fitness (log ratio)” value is -1.05.

On to G52U C53G G60C C80A C94U, for which the “polymerase ribozyme fitness (log ratio)” value is -2.08.

For G52A C101U, the “polymerase ribozyme fitness (log ratio)” value came out at 0.00367.

Regarding G51C A91U G113C C124A, the “polymerase ribozyme fitness (log ratio)” value was -5.11.

For C49U C89U A105U, the “polymerase ribozyme fitness (log ratio)” value was -4.2.

For the variant G51U G113U, the “polymerase ribozyme fitness (log ratio)” value was -6.05.

Turning to C49U G58A U125A, the “polymerase ribozyme fitness (log ratio)” value is -1.44.

With C49G G128U, the “polymerase ribozyme fitness (log ratio)” value was -2.74.

Regarding G52A A90C A100U A111G, the “polymerase ribozyme fitness (log ratio)” value was -2.82.

In the case of G51U G61C U87C C123A, the “polymerase ribozyme fitness (log ratio)” value was -4.21.

For the variant G51C G57A, the “polymerase ribozyme fitness (log ratio)” value was -3.2.

C49G C70U A84G U126G U129G G135C: the “polymerase ribozyme fitness (log ratio)” value was -4.25.

On to A50G C85A, for which the “polymerase ribozyme fitness (log ratio)” value is -2.34.

Take C49U A50G: the “polymerase ribozyme fitness (log ratio)” value was -1.68.

With C49U G52U G61A G120A, the “polymerase ribozyme fitness (log ratio)” value was -0.105.

Regarding C49U U87A, the “polymerase ribozyme fitness (log ratio)” value was -0.416.

With C49A C73U C88U C94U C123U U132G G135U, the “polymerase ribozyme fitness (log ratio)” value is -1.74.

Consider A50U G61C C88U G113C, for which the “polymerase ribozyme fitness (log ratio)” value is -5.11.

As to C49U C72A C79G C104A, the “polymerase ribozyme fitness (log ratio)” value is -4.65.

On to A50U G51A G60A, for which the “polymerase ribozyme fitness (log ratio)” value is -4.34.

On to C49G U106G U116C, for which the “polymerase ribozyme fitness (log ratio)” value is -4.97.

As to C49G C70A G110A A121C, the “polymerase ribozyme fitness (log ratio)” value was -4.74.

Consider C49U C53U C79A G120A G128A, for which the “polymerase ribozyme fitness (log ratio)” value is -3.2.

For G51U C62U C89U, the “polymerase ribozyme fitness (log ratio)” value was -5.

Regarding G51C G60A A111G, the “polymerase ribozyme fitness (log ratio)” value was -4.94.

Take A50G G117A: the “polymerase ribozyme fitness (log ratio)” value is -1.18.

Consider A50U G93A, for which the “polymerase ribozyme fitness (log ratio)” value is -1.21.

With G51U U55G, the “polymerase ribozyme fitness (log ratio)” value was -3.24.

In the case of A50U C88A G110A, the “polymerase ribozyme fitness (log ratio)” value is -3.66.
